Key:
Test in all cases: cell-based or functional assay
[1] = target: full-length mosquito A. aegypti ultraspiracle receptor, a-form (AaUSPa) (Aedes aegypti)
[2] = target: full-length mosquito A. aegypti ultraspiracle receptor, b-form (AaUSPb) (Aedes aegypti)
[3] = target: full-length spruce budworm C. fumiferana ultraspiracle receptor (CfUSP) (Choristoneura fumiferana)
[4] = target: human RXR α (retinoid X receptor α) (human) (UniProt P19793)
[5] = target: mouse RXR β (retinoid X receptor β) (mouse) (UniProt P28704)
[6] = target: mouse RXR γ (retinoid X receptor γ) (mouse) (UniProt P28705)
[7] = target: spruce budworm C. fumiferana ultraspiracle receptor with deletion of the A/B transactivation domain (Cf ΔAB USP) (Choristoneura fumiferana)
[8] = target: D. melanogaster ultraspiracle receptor with deletion of the AB transactivation domain (Dm ΔAB USP) (Drosophila melanogaster) (UniProt P20153)
[9] = target: T1, full-length D. melanogaster ultraspiracle receptor (DmUSP) (Drosophila melanogaster)
T1 sequence (P20153 1-508, looked up): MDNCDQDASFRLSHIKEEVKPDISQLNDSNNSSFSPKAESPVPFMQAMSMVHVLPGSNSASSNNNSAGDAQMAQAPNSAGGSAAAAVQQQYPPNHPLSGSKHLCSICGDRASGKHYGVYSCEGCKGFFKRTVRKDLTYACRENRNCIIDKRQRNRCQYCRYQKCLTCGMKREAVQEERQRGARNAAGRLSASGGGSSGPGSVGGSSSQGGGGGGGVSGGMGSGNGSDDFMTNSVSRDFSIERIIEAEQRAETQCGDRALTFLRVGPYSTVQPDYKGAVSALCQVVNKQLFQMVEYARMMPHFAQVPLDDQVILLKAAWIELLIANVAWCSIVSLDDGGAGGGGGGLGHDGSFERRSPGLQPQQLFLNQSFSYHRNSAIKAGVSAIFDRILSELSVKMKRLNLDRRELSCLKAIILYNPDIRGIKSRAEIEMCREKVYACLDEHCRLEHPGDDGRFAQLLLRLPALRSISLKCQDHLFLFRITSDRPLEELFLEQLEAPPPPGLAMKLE

[10] = target: mosquito A. aegypti ultraspiracle receptor with deletion of the A/B transactivation domain (Aa ΔAB USP) (Aedes aegypti)

mouse RXR β (retinoid X receptor β) (mouse), sequence (P28704 111-520 limits assumed): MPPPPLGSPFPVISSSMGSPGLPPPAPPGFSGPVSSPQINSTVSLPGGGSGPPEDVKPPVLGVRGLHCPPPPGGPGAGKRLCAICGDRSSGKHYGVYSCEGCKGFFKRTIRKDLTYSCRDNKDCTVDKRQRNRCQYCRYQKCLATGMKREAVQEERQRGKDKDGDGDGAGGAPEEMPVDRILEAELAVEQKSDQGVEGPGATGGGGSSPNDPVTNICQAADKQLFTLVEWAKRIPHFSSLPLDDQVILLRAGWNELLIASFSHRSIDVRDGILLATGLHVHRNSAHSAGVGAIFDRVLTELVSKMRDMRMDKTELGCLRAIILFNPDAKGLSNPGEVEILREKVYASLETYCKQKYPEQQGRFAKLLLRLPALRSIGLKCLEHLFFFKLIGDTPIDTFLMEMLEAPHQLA
human RXR α (retinoid X receptor α) (human), sequence (P19793 whole entry): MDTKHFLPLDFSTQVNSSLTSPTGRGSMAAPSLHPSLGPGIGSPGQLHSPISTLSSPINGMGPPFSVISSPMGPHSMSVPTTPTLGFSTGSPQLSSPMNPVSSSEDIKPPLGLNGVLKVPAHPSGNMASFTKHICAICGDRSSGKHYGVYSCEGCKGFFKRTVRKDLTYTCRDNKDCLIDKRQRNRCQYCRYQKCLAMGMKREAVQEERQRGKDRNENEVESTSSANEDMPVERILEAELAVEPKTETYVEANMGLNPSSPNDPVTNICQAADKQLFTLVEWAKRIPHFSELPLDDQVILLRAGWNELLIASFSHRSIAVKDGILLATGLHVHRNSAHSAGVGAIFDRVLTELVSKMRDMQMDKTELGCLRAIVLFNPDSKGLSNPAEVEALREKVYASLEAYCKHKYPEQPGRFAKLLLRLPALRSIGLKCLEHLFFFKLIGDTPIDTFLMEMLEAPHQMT
mouse RXR γ (retinoid X receptor γ) (mouse), sequence (P28705 whole entry, the tested form may be a part): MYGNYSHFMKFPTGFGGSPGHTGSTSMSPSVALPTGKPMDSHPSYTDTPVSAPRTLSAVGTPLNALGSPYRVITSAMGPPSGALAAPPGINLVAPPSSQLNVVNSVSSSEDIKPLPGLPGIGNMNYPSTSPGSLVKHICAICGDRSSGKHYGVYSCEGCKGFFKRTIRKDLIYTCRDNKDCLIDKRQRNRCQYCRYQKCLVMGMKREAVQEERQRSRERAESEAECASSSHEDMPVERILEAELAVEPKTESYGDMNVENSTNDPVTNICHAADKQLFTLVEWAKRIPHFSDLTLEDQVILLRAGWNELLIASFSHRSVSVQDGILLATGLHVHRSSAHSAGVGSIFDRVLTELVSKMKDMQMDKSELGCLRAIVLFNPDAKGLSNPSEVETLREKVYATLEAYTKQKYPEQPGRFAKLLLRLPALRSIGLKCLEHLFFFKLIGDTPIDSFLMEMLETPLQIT

## full-length mosquito A. aegypti ecdysone receptor (AaEcR) (from UniProt P49880 1-776)
[1]
  β-galactosidase activity (yeast 6x EcRE-lacZ reporter), DMSO, without GRIP1: 2.3
  β-galactosidase activity (yeast 6x EcRE-lacZ reporter), RH 5992 10 µM, without GRIP1: 2.45
[2]
  β-galactosidase activity (yeast 6x EcRE-lacZ reporter), DMSO, without GRIP1: 3
  β-galactosidase activity (yeast 6x EcRE-lacZ reporter), RH 5992 10 µM, without GRIP1: 2.7

## spruce budworm C. fumiferana ecdysone receptor with deletion of the AB transactivation domain (Cf ΔAB EcR)
[3]
  β-galactosidase activity (yeast 6x EcRE-lacZ reporter), DMSO, without GRIP1: 2.68
  β-galactosidase activity (yeast 6x EcRE-lacZ reporter), RH 5992 10 µM, without GRIP1: 3
[4]
  β-galactosidase activity (yeast 6x EcRE-lacZ reporter), DMSO, with GRIP1: 0.27
  β-galactosidase activity (yeast 6x EcRE-lacZ reporter), RH 5992 10 µM, with GRIP1: 2.06
[5]
  β-galactosidase activity (yeast 6x EcRE-lacZ reporter), DMSO, with GRIP1: 0.205
  β-galactosidase activity (yeast 6x EcRE-lacZ reporter), RH 5992 10 µM, with GRIP1: 0.456
[6]
  β-galactosidase activity (yeast 6x EcRE-lacZ reporter), DMSO, with GRIP1: 0.2
  β-galactosidase activity (yeast 6x EcRE-lacZ reporter), RH 5992 10 µM, with GRIP1: 1.03
[7]
  β-galactosidase activity (yeast 6x EcRE-lacZ reporter), DMSO, with GRIP1: 0.2
  β-galactosidase activity (yeast 6x EcRE-lacZ reporter), DMSO, without GRIP1: 0.209
  β-galactosidase activity (yeast 6x EcRE-lacZ reporter), RH 5992 10 µM, with GRIP1: 2.5
  β-galactosidase activity (yeast 6x EcRE-lacZ reporter), RH 5992 10 µM, with GRIP1 (Table 4 prints another value than Table 3 for this combination): 3
  β-galactosidase activity (yeast 6x EcRE-lacZ reporter), RH 5992 10 µM, without GRIP1: 0.234

## N-terminal truncated D. melanogaster EcR B-1 ecdysone receptor (Dm ΔN EcR) (from UniProt P34021 221-878)
[8]
  β-galactosidase activity (yeast 6x EcRE-lacZ reporter), DMSO, with GRIP1: 0.34
  β-galactosidase activity (yeast 6x EcRE-lacZ reporter), RH 5992 10 µM, with GRIP1: 2.32
[9]
  β-galactosidase activity (yeast 6x EcRE-lacZ reporter), DMSO, with GRIP1: 0.424
  β-galactosidase activity (yeast 6x EcRE-lacZ reporter), DMSO, without GRIP1: 0.152
  β-galactosidase activity (yeast 6x EcRE-lacZ reporter), RH 5992 10 µM, with GRIP1: 2.54
  β-galactosidase activity (yeast 6x EcRE-lacZ reporter), RH 5992 10 µM, without GRIP1: 0.182
[1]
  β-galactosidase activity (yeast 6x EcRE-lacZ reporter), DMSO, with GRIP1: 0.243
  β-galactosidase activity (yeast 6x EcRE-lacZ reporter), RH 5992 10 µM, with GRIP1: 1.86
[2]
  β-galactosidase activity (yeast 6x EcRE-lacZ reporter), DMSO, with GRIP1: 0.251
  β-galactosidase activity (yeast 6x EcRE-lacZ reporter), RH 5992 10 µM, with GRIP1: 2.07
[3]
  β-galactosidase activity (yeast 6x EcRE-lacZ reporter), DMSO, with GRIP1: 1.15
  β-galactosidase activity (yeast 6x EcRE-lacZ reporter), RH 5992 10 µM, with GRIP1: 1.41
[6]
  β-galactosidase activity (yeast 6x EcRE-lacZ reporter), DMSO, with GRIP1: 0.364
  β-galactosidase activity (yeast 6x EcRE-lacZ reporter), RH 5992 10 µM, with GRIP1: 1.28
[7]
  β-galactosidase activity (yeast 6x EcRE-lacZ reporter), DMSO, with GRIP1: 0.235
  β-galactosidase activity (yeast 6x EcRE-lacZ reporter), RH 5992 10 µM, with GRIP1: 0.59

## full-length spruce budworm C. fumiferana ecdysone receptor (CfEcR)
[3]
  β-galactosidase activity (yeast 6x EcRE-lacZ reporter), DMSO, without GRIP1: 2.73
  β-galactosidase activity (yeast 6x EcRE-lacZ reporter), RH 5992 10 µM, without GRIP1: 3
[7]
  β-galactosidase activity (yeast 6x EcRE-lacZ reporter), DMSO, with GRIP1: 0.223
  β-galactosidase activity (yeast 6x EcRE-lacZ reporter), DMSO, without GRIP1: 0.205
  β-galactosidase activity (yeast 6x EcRE-lacZ reporter), RH 5992 10 µM, with GRIP1: 0.492
  β-galactosidase activity (yeast 6x EcRE-lacZ reporter), RH 5992 10 µM, without GRIP1: 0.241

## mosquito A. aegypti ecdysone receptor with deletion of the A/B transactivation domain (Aa ΔAB EcR) (from UniProt P49880 285-776)
[1]
  β-galactosidase activity (yeast 6x EcRE-lacZ reporter), DMSO, with GRIP1: 0.272
  β-galactosidase activity (yeast 6x EcRE-lacZ reporter), DMSO, without GRIP1: 0.194
  β-galactosidase activity (yeast 6x EcRE-lacZ reporter), RH 5992 10 µM, with GRIP1: 2.03
  β-galactosidase activity (yeast 6x EcRE-lacZ reporter), RH 5992 10 µM, without GRIP1: 0.209
[2]
  β-galactosidase activity (yeast 6x EcRE-lacZ reporter), DMSO, with GRIP1: 0.24
  β-galactosidase activity (yeast 6x EcRE-lacZ reporter), DMSO, without GRIP1: 0.177
  β-galactosidase activity (yeast 6x EcRE-lacZ reporter), RH 5992 10 µM, with GRIP1: 2.07
  β-galactosidase activity (yeast 6x EcRE-lacZ reporter), RH 5992 10 µM, without GRIP1: 0.184
[4]
  β-galactosidase activity (yeast 6x EcRE-lacZ reporter), DMSO, with GRIP1: 0.544
  β-galactosidase activity (yeast 6x EcRE-lacZ reporter), RH 5992 10 µM, with GRIP1: 2.03
[10]
  β-galactosidase activity (yeast 6x EcRE-lacZ reporter), DMSO, with GRIP1: 0.194
  β-galactosidase activity (yeast 6x EcRE-lacZ reporter), DMSO, without GRIP1: 0.187
  β-galactosidase activity (yeast 6x EcRE-lacZ reporter), RH 5992 10 µM, with GRIP1: 1.37
  β-galactosidase activity (yeast 6x EcRE-lacZ reporter), RH 5992 10 µM, without GRIP1: 0.196
[5]
  β-galactosidase activity (yeast 6x EcRE-lacZ reporter), DMSO, with GRIP1: 0.231
  β-galactosidase activity (yeast 6x EcRE-lacZ reporter), RH 5992 10 µM, with GRIP1: 1.98
[6]
  β-galactosidase activity (yeast 6x EcRE-lacZ reporter), DMSO, with GRIP1: 0.496
  β-galactosidase activity (yeast 6x EcRE-lacZ reporter), RH 5992 10 µM, with GRIP1: 2.67
[7]
  β-galactosidase activity (yeast 6x EcRE-lacZ reporter), DMSO, with GRIP1: 0.25
  β-galactosidase activity (yeast 6x EcRE-lacZ reporter), RH 5992 10 µM, with GRIP1: 3

B1: full-length D. melanogaster EcR B-1 ecdysone receptor (receptor, Drosophila melanogaster, UniProt P34021 1-878, looked up)
chain: MKRRWSNNGGFMRLPEESSSEVTSSSNGLVLPSGVNMSPSSLDSHDYCDQDLWLCGNESGSFGGSNGHGLSQQQQSVITLAMHGCSSTLPAQTTIIPINGNANGNGGSTNGQYVPGATNLGALANGMLNGGFNGMQQQIQNGHGLINSTTPSTPTTPLHLQQNLGGAGGGGIGGMGILHHANGTPNGLIGVVGGGGGVGLGVGGGGVGGLGMQHTPRSDSVNSISSGRDDLSPSSSLNGYSANESCDAKKSKKGPAPRVQEELCLVCGDRASGYHYNALTCEGCKGFFRRSVTKSAVYCCKFGRACEMDMYMRRKCQECRLKKCLAVGMRPECVVPENQCAMKRREKKAQKEKDKMTTSPSSQHGGNGSLASGGGQDFVKKEILDLMTCEPPQHATIPLLPDEILAKCQARNIPSLTYNQLAVIYKLIWYQDGYEQPSEEDLRRIMSQPDENESQTDVSFRHITEITILTVQLIVEFAKGLPAFTKIPQEDQITLLKACSSEVMMLRMARRYDHSSDSIFFANNRSYTRDSYKMAGMADNIEDLLHFCRQMFSMKVDNVEYALLTAIVIFSDRPGLEKAQLVEAIQSYYIDTLRIYILNRHCGDSMSLVFYAKLLSILTELRTLGNQNAEMCFSLKLKNRKLPKFLEEIWDVHAIPPSVQSHLQITQEENERLERAERMRASVGGAITAGIDCDSASTSAAAAAAQHQPQPQPQPQPSSLTQNDSQHQTQPQLQPQLPPQLQGQLQPQLQPQLQTQLQPQIQPQPQLLPVSAPVPASVTAPGSLSAVSTSSEYMGGSAAIGPITPATTSSITAAVTASSTTSAVPMGNGVGVGVGVGGNVSMYANAQTAMALMGVALHSHQEQLIGGVAVKSEHSTTA
[9]
  β-galactosidase activity (yeast 6x EcRE-lacZ reporter), DMSO, without GRIP1: 2.09
  β-galactosidase activity (yeast 6x EcRE-lacZ reporter), RH 5992 10 µM, without GRIP1: 1.95
